Reference: doi:10.1101/2021.07.15.452438 (bioRxiv, 2021)
Residue numbers refer to the chain shown, from its start. Names and notes keep the numbering of the source. Where two headings read alike, the source gives them in different places.

Legend:
BRD4-ET domain (for ITC) [1] = target: T1, BRD4-ET domain (for ITC) (UniProt O60885 600-678); assay: ITC
TurboID-BRD4-ET = TurboID-BRD4-ET (UniProt O60885 600-678); assay: proximity labelling
BRD4-ET domain (for ITC) [2] = target: T1, BRD4-ET domain (for ITC); assay: ITC; remark: listed apart in the source
GST-BRD2^632-710 = GST-BRD2^632-710 (UniProt P25440 632-710); assay: pull-down
Sequence of GST-BRD2^632-710 (P25440 632-710): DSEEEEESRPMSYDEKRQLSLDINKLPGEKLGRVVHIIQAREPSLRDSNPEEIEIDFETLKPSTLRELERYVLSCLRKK

GST-BRD3^562-640 = GST-BRD3^562-640 (UniProt Q15059 562-640); assay: pull-down
Sequence of GST-BRD3^562-640 (Q15059 562-640): as the sequence (P25440 632-710) above, with S8G, R9L, K25R, A40S, E51D, S63T, L73K, R77Q counted along it

GST-BRD4^600-678 = GST-BRD4^600-678 (UniProt O60885 600-678); assay: pull-down

B1: His6MBP-ASXL2^582-634 (domain or fragment)
chain: EKRPRVTENRQHQQPFQVSPQPFLNRGDRIQVRKVPPLKIPVSRISPMPFHPS
- Kd (BRD4-ET domain (for ITC) [1]): 1100 nM

B2: His6MBP-fused ASXL1^567-587 (domain or fragment)
chain: PKVPPIRIQLSRIKPPWVVKG
- Kd (BRD4-ET domain (for ITC) [1]): 1360 nM

B3: ASXL1^Y591X (domain or fragment)
chain: MKDKQKKKKERTWAEAARLVLENYSDAPMTPKQILQVIEAEGLKEMRSGTSPLACLNAMLHSNSRGGEGLFYKLPGRISLFTLKKDALQWSRHPATVEGEEPEDTADVESCGSNEASTVSGENDVSLDETSSNASCSTESQSRPLSNPRDSYRASSQANKQKKKTGVMLPRVVLTPLKVNGAHVESASGFSGCHADGESGSPSSSSSGSLALGSAAIRGQAEVTQDPAPLLRGFRKPATGQMKRNRGEEIDFETPGSILVNTNLRALINSRTFHALPSHFQQQLLFLLPEVDRQVGTDGLLRLSSSALNNEFFTHAAQSWRERLADGEFTHEMQVRIRQEMEKEKKVEQWKEKFFEDYYGQKLGLTKEESLQQNVGQEEAEIKSGLCVPGESVRIQRGPATRQRDGHFKKRSRPDLRTRARRNLYKKQESEQAGVAKDAKSVASDVPLYKDGEAKTDPAGLSSPHLPGTSSAAPDLEGPEFPVESVASRIQAEPDNLARASASPDRIPSLPQETVDQEPKDQKRKSFEQAASASFPEKKPRLEDRQSFRNTIESVHTEKPQPTKEEPKVPPIRIQLSRIKPPWVVKGQPT
- fold enhancement of BRD4-ET binding over full-length ASXL1 (TurboID-BRD4-ET): 3.5 fold
- fold enhancement of ET-domain binding over full-length ASXL1, peptide […] (TurboID-BRD4-ET): ~3 fold

B4: His6MBP-ASXL1^537-587 (domain or fragment)
chain: EKKPRLEDRQSFRNTIESVHTEKPQPTKEEPKVPPIRIQLSRIKPPWVVKG
- Kd (BRD4-ET domain (for ITC) [2]): 535 nM
- Kd (BRD4-ET domain (for ITC) [1]): 1300 nM
- binding result (GST-BRD2^632-710): binds
- binding result (GST-BRD3^562-640): binds

B5: His6MBP-ASXL1^537-587 Q575A (domain or fragment)
chain: B4 chain with Q39A
- binding result (GST-BRD4^600-678): binds

B6: His6MBP-ASXL1^537-587 with the motif arginine mutated to alanine (domain or fragment)
chain: B4 chain with R37A
- binding result (GST-BRD4^600-678): binds

B7: His6MBP-ASXL3^977-1027 (domain or fragment)
chain: EKRARIEDDQSTRNISSSSPPEKEQPPREEPRVPPLKIQLSKIGPPFIIKS
- Kd (BRD4-ET domain (for ITC) [1]): 2000 nM
